Target: T1, human serum albumin (Homo sapiens, UniProt P02768)
T1 construct: purchased Aventis, Bridgewater, N.J. Albuminar
Experiment: Serum albumin binding by surface plasmon resonance (BIACORE 3000)
Settings: SPR, immobilized serum albumin, 25° C., Req divided by molecular weight; for reduction of human serum albumin binding of the Fc chimeric protein compared to the unmodified molecule: unmodified molecule bound this many times as much
Description: Analysis of macromolecular interactions was performed using surface plasmon resonance as previously described (Frostell-Karlsson et al. 2000, J. Med. Chem. 43:1986). A BIACORE 3000 instrument (Biacore AB, Piscataway, N.J.) was used and all binding interactions were performed at 25° C. A carboxymethyl-modified dextran (CM5) sensor chip (Biacore AB, Piscataway, N.J.) was used for the analysis. Serum albumin (Albuminar, Aventis, Bridgewater, N.J.) was diluted to 100 μg/mL in 10 mM sodium acetate (pH 4.5) and immobilized to one flowcell of the sensor chip, using amine coupling as described (Frostell-Karlsson et al. 2000, J. Med. Chem. 43:1986). Final immobilization level was approximately 8500 Resonance Units (RU). A “mock-immobilized” surface using a separate flowcell was created using the same procedure in the absence of serum albumin and served as a reference for the binding studies.
Proteins or peptides (analyte) were diluted in HBS-N buffer (10 mM HEPES, pH 7.4; 150 mM NaCl) and injected over the serum albumin and reference surfaces for 3 minutes at a rate of 20 μL/min. After a 35 second dissociation phase, the surface was regenerated by a 30 second pulse of 10 mM glycine (pH 2.0) at a flow rate of 60 μL/min.
The sensorgrams (RU versus time) generated for the mock-coated flowcell were automatically subtracted from the serum albumin-coated sensorgrams. Response at equilibrium (Req) was measured 30 seconds before the end of the injection phase and divided by the molecular weight of the analyte, total response as is in part, a function of molecular weight. (Frostell-Karlsson et al. 2000, J. Med. Chem. 43:1986). Samples tested included T20 linked to Fc (i.e. T20-Fc produced in CHO cells and Fc-T20 produced in E. coli), a VLA4 antagonist linked to Fc, a GnRH peptide linked to Fc, PspA, a bacterial peptide fragment of S. pneumonia surface protein A, peptide YY a peptide involved in regulation of nutrient uptake and an Fc fragment of an immunoglobulin beginning with Cys 226 served as negative controls.

| Substance | human serum albumin binding of the unmodified molecule compared to the same molecule linked to Fc (ratio unmodified molecule / Fc chimeric protein) | reduction of human serum albumin binding of the Fc chimeric protein compared to the unmodified molecule |
| --- | --- | --- |
| T20: HIV fusion inhibitor, a small peptide, fragment of gp41 (SEQ ID NO: 1) [reference compound] | more than three | – |
| Fc-T20: T20 linked to Fc, produced in E. coli | – | more than three |
| T20-Fc: T20 linked to Fc, produced in CHO cells | – | more than three |

Reference: patent US20050037947A1, “INHIBITION OF DRUG BINDING TO SERUM ALBUMIN” (priority 2003, published 2005)
